FireProtDB (doi:10.1016/0301-4622(94)00150-i)
Where “and” joins values, the source holds several entries; their conditions need not be identical. Equal entries are not always repeated.

Conditions: Aspergillus flavus, Thermal, DSC, reversible: No, whole UniProt chain shown
[1] = pH 6.95, Sodium phosphate 50 mM
[2] = pH 7.45, Sodium phosphate 50 mM

B1: Uricase wild type, Q00511 (protein)
chain: MSAVKAARYGKDNVRVYKVHKDEKTGVQTVYEMTVCVLLEGEIETSYTKADNSVIVATDSIKNTIYITAKQNPVTPPELFGSILGTHFIEKYNHIHAAHVNIVCHRWTRMDIDGKPHPHSFIRDSEEKRNVQVDVVEGKGIDIKSSLSGLTVLKSTNSQFWGFLRDEYTTLKETWDRILSTDVDATWQWKNFSGLQEVRSHVPKFDATWATAREVTLKTFAEDNSASVQATMYKMAEQILARQQLIETVEYSLPNKHYFEIDLSWHKGLQNTGKNAEVFAPQSDPNGLIKCTVGRSSLKSKL
Tm [1]: 65 °C
unfolding enthalpy (calorimetric) [1]: 16.3 kcal/mol
unfolding enthalpy (calorimetric) (pH 7.2, Sodium phosphate 50 mM): 75.8 kcal/mol and 48.1 kcal/mol
unfolding enthalpy (calorimetric) (pH 7.25, Sodium phosphate 50 mM): 72 kcal/mol and 53.3 kcal/mol
Tm [2]: 68.4 °C
unfolding enthalpy (calorimetric) [2]: 57.9 kcal/mol
Tm (pH 7.8, Sodium phosphate 50 mM): 50.1 °C
unfolding enthalpy (calorimetric) (pH 7.8, Sodium phosphate 50 mM): 82.8 kcal/mol
unfolding enthalpy (calorimetric) (pH 8.5, Tris-HCl 50 mM): 78.9 kcal/mol and 29.7 kcal/mol
Tm (pH 8.8, Tris-HCl 50 mM): 49.9 °C
unfolding enthalpy (calorimetric) (pH 8.8, Tris-HCl 50 mM): 80.1 kcal/mol
unfolding enthalpy (calorimetric) (pH 9.05, Tris-HCl 50 mM): 76.8 kcal/mol and 26.8 kcal/mol
unfolding enthalpy (calorimetric) (pH 9.5, carbonate 50 mM): 82.3 kcal/mol and 59.1 kcal/mol
